In patent publication US20080306007:
Changes are numbered by the printed parent chain.

T1: endophilin I (native, from rat brain lysate or synaptosomes), O35179
T1 chain: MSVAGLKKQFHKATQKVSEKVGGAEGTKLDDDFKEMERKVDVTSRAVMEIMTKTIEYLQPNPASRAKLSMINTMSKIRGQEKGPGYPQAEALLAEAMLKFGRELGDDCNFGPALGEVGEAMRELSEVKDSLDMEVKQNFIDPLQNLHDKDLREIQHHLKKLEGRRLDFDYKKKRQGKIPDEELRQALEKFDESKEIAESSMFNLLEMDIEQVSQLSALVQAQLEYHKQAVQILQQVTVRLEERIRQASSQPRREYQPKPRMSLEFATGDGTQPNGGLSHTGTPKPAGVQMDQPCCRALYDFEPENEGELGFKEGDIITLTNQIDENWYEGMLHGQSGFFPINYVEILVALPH

B1: DynI-PB2-GFP (protein)
chain: MGNRGMEDLIPLVNRLQDAFSAIGQNADLDLPQIAVVGGQSAGKSSVLENFVGRDFLPRGSGIVTRRPLVLQLVNSTTEYAEFLHCKGKKFTDFEEVRLEIEAETDRVTGTNKGISPVPINLRVYSPHVLNLTLVDLPGMTKVPVGDQPPDIEFQIRDMLMQFVTKENCLILAVSPANSDLANSDALKIAKEVDPQGQRTIGVITKLDLMDEGTDARDVLENKLLPLRRGYIGVVNRSQKDIDGKKDITAALAAERKFFLSHPSYRHLADRMGTPYLQKVLNQQLTNHIRDTLPGLRNKLQSQLLSIEKEVDEYKNFRPDDPARKTKALLQMVQQFAVDFEKRIEGSGDQIDTYELSGGARINRIFHERFPFELVKMEFDEKELRREISYAIKNIHGIRTGLFTPDLAFEATVKKQVQKLKEPSIKCVDMVVSELTSTIRKCSEKLQQYPRLREEMERIVTTHIREREGRTKEQVMLLIDIELAYMNTNHEDFIGFANAQQRSNQMNKKKTSGNQDEILVIRKGWLTINNIGIMKGGSKEYWFVLTAENLSWYKDDEEKEKKYMLSVDNLKLRDVEKGFMSSKHIFALFNTEQRNVYKDYRQLELACETQEEVDSWKASFLRAGVYPERVGDKEKASETEENGSDSFMHSMDPQLERQVETIRNLVDSYMAIVNKTVRDLMPKTIMHLMINNTKEFIFSELLANLYSCGDQNTLMEESAEQAQRRDEMLRMYHALKEALSIIGDINTTTVSTPMPPPVDDSWLQVQSVPAGEESPTSSPTPQRRAPAVPPARPGSRGPAPGPPPAGSALGGAPPVPSRPGASPDPFGPPPQVPSRPNRAPPGVPSRSGQASPSRPESPRPPFDL
B2: DynI^dmE-GFP (protein)
chain: B1 chain with E772R, E773R, S774E, S778E
B3: DynI-3B-GFP (protein)
chain: B1 chain with E772R, E773R, P793A
B4: DynI^dmA-GFP (protein)
chain: B1 chain with E772R, E773R, S774A, S778A

Columns and labels:
[1] = biological target: syndapin I (native, from rat brain lysate or synaptosomes)
Sequence of syndapin I (native, from rat brain lysate or synaptosomes) (chain, as listed by the source): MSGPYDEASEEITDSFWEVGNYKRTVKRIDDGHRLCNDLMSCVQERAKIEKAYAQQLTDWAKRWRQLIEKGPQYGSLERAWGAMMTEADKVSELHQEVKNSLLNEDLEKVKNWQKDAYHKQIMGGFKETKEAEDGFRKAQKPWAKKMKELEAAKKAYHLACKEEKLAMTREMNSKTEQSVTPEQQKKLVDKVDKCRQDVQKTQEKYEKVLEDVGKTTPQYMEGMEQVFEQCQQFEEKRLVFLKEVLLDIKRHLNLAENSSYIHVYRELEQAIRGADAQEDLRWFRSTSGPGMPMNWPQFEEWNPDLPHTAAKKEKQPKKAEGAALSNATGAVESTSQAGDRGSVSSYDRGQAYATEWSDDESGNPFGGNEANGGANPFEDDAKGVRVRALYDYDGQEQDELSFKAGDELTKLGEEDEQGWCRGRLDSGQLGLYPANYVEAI

[2] = biological target: T1, endophilin I (native, from rat brain …)

Row | Protein | total SV recycling pool (FM4-64) in transfected CGNs [1] | further results
1 | B1 | – | total synaptic recycling pool (FM4-64) in transfected CGNs [1]: 59.5±4.3% of control for DynI-PB2-GFP
2 | B2 | 64.4±6.2% of control | –
3 | B3 | – | total synaptic recycling pool (FM4-64) in transfected CGNs [2]: 56.8±4.4% for DynI-3B-GFP
4 | B4 | 28±3.5% of control | –
